Key:
ErbB-3-Ig [1] = target: T1, ErbB-3-Ig (Homo sapiens, UniProt P21860); test: Phage ELISA of phage-displayed HRG-β1 variants, binding to ErbB-3-Ig
T1 construct: expressed the extracellular domain (ECD) of the ErbB-2, ErbB-3, or ErbB-4 receptor fused to a human IgG constant domain; made in house; host or cells: HEK-293 cells, secreted, Protein A purified
Method: To produce phage displaying the domains, mutagenesis reaction mixtures were electrotransformed into XL1-Blue™ cells (Stratagene, Inc., La Jolla, Calif.), according to the manufacturer's protocol. The transformed cells were then infected with 10^14 plaque-forming units (pfu) M13K07 helper phage (Promega Corp., Madison, Wis.). Phage stocks (about 10^14 phagemid/mL) were prepared by precipitating culture broths from the cells after 18-24 hours (h) of growth with 20% PEG(2000)/2.5 M NaCl, according to the method of Sambrook and Maniatis, Molecular Cloning a Laboratory Manual Cold Spring Harbor Press 429 (1989). […]
Serial dilutions of soluble ErbB-2/3-Ig (competitor) and a concentration of phage predetermined to give 60% saturation (without competitor) were added to the wells in 100 μL binding buffer. […] The amount of phage binding was determined by assaying horseradish peroxidase activity using o-phenylenediamine dihydrochloride) substrate solution (Sigma Chemical Company, St. Louis, Mo.). EC50 values were calculated as the concentration of soluble ErbB-2/3-Ig required to compete half of the phage off the plate.
Alanine-substituted variants were generated by site-directed mutagenesis according to Kunkel et al., Methods Enzymol. […] The affinities of the alanine-substituted variants for ErbB-3-Ig and ErbB-4-Ig was determined by phage ELISA as described in Example 1. […]

ErbB-2/3-Ig = test: Inhibition of 125I-HRG binding by soluble HRG-β1 EGF variants; settings: ErbB-2/3-Ig versus ErbB-3-Ig homodimer
Method: The affinities of the soluble variants for ErbB-Ig were determined by measuring inhibition of ^125I-HRG binding to ErbB-2/3, -3 and -4 receptor-Ig fusions, as previously described in Example 1.

[2] = system: ErbB-3 or ErbB-4 receptors; test: Alanine scan of the HRG-β1 EGF-like domain by phage ELISA (FIG. 2); format: binding; settings: ratio of variant EC50 to wild-type EC50
Method: The X axis lists each amino acid that was changed to alanine and its position. […] The EC50 was calculated as the concentration of soluble receptor fusion required to displace 50% of the total amount of phage bound to immobilized receptor fusion. ErbB-3 binding results are shown with black bars, and ErbB-4 binding results are shown with white bars.
Alanine-substituted variants were generated by site-directed mutagenesis according to Kunkel et al., Methods Enzymol. 154:367-82 (1987) (hereinafter “Kunkel mutagenesis”), using uracil-containing single-stranded DNA template prepared from pHRG2-g3. pHRG2-g3, which is described in Example 1, expressed HRG-β1 177-244 fused to pIII 247. A series of oligonucleotides was used to generate a series of constructs that expressed a series of variants in which consecutive residues were mutated to alanine. Phage stocks were prepared from these constructs as described in Example 1, except that PEG(8000) was used to precipitate the phage. The affinities of the alanine-substituted variants for ErbB-3-Ig and ErbB-4-Ig was determined by phage ELISA as described in Example 1.

ErbB-4-Ig = target: T2, ErbB-4-Ig (Homo sapiens, UniProt Q15303); test: Inhibition of 125I-HRG-β1 177-244 binding by soluble Trx-variant fusions; settings: soluble thioredoxin (Trx)-variant fusions; HRG-β1 = recombinant HRG-β1 177-244
T2 construct: expressed the extracellular domain (ECD) of the ErbB-2, ErbB-3, or ErbB-4 receptor fused to a human IgG constant domain; made in house; host or cells: HEK-293 cells, secreted, Protein A purified
T2 sequence (Q15303 with tags, fused parts or gaps): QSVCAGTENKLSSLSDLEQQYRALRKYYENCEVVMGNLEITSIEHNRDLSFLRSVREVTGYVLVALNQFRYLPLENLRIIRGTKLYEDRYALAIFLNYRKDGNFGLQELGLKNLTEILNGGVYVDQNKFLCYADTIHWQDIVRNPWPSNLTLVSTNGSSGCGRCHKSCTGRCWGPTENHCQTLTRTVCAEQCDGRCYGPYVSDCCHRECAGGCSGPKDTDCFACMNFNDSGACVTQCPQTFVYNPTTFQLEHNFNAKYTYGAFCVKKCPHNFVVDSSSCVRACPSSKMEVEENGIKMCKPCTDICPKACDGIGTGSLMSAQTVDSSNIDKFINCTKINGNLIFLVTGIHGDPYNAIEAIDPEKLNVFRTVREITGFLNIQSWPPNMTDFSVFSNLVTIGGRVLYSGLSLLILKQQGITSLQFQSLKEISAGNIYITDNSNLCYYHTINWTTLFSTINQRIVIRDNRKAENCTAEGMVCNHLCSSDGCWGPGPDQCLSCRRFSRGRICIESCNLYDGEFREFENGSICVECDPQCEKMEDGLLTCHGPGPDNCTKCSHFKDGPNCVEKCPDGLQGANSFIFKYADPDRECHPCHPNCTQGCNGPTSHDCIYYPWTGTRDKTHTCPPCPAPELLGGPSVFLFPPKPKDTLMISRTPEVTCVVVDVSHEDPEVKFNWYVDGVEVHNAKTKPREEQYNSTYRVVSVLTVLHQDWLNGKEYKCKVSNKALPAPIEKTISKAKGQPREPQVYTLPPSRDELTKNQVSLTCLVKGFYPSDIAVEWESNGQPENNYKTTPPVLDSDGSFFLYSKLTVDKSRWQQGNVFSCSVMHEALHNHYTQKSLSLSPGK
Method: (§1) The affinities of the Trx-variant fusions for ErbB receptor-Ig fusions were determined by measuring inhibition of ^125I-HRG-β1 177-244 binding to ErbB-3-Ig and ErbB-4-Ig. Receptor fusions were coated on plates (Nunc Maxisorp C™ break-apart strip wells, Inter Med, Denmark) via anti-human IgG, as described in Example 1 for phage ELISA. Binding assays were carried out with a constant amount of ^125I-HRG-β1 177-244 (100-300 pM) and varying concentrations (100 pM-4 μM) of unlabeled Trx-variant fusion. Following incubation for 1-3 h at room temperature, plates were washed, and the amount of bound ^125I-HRG-β1 177-244 in each well was counted on a gamma counter (Isodata, ICN Biomedic Systems, Huntsville, Ala.). For the ErbB-3 binding assays, the blocking buffer was TBST (0.025 M Tris-HCl [pH 7.5], 0.15 M NaCl, 0.02% Tween 20™) containing 1% BSA; the binding buffer was RPMI 1640™ cell culture media (Gibco-BRL, Gaithersburg, Md.) containing 2 mM glutamine, 100 U/mL penicillin, 100 μg/mL streptomycin, 10 mM HEPES buffer (pH 7.2), 0.2% BSA; and the wash buffer was TBST. For the ErbB-4 binding assays, PBS containing 1% BSA was used as the blocking and binding buffers, and the wash buffer was PBS containing 0.05% Tween 20™.

ErbB-3-Ig [3] = target: T1, ErbB-3-Ig; test: as above; settings: soluble thioredoxin (Trx)-variant fusions; HRG-β1 = recombinant HRG-β1 177-244
Method: as §1

T1 sequence (P21860 with tags, fused parts or gaps): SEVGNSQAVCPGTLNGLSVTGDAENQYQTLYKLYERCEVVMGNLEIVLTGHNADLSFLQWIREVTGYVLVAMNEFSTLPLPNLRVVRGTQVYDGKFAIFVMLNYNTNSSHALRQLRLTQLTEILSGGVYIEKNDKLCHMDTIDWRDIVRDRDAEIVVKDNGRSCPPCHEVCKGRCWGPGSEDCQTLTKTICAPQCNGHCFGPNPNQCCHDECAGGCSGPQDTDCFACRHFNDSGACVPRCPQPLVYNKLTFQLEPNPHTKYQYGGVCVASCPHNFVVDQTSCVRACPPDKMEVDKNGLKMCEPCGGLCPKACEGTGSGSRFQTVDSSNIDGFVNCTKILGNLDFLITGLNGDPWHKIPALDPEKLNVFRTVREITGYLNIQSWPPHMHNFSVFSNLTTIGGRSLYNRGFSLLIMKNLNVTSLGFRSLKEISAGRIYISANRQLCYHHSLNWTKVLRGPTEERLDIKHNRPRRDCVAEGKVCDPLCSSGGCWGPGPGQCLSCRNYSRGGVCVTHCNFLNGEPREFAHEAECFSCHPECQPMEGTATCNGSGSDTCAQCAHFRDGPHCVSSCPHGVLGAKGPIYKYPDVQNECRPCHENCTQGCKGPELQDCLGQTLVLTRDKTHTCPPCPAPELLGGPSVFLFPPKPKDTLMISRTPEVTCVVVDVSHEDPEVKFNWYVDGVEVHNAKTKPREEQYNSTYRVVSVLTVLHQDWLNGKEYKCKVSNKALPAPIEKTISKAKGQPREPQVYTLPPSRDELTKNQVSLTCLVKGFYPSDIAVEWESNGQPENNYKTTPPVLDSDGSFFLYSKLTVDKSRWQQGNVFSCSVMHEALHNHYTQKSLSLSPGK

Which “increase in ErbB-3 receptor (ErbB-3-Ig) affinity over wild-type HRG-β1 EGF” value (ErbB-3-Ig [1]; phage ELISA) does the source give for “B10: HRG-β1 EGF library B variant: A183D, E184K, K185S, E186R, K187E, T188G, M226I (SHLVKCDKSREGFCVNGGECFMVKDLSNPSRYLCKCPNEFTGDRCQNYVIAS; left off: large carriers; small tags and cut ends) [Variant B10]” here?
Its value is “up to 26 fold”.

B1: HRG8: wild-type HRG-β1 177-228 (minimal EGF-like domain); on phage linked via (GGGS)3 to pIII 323, or soluble (protein)
chain: SHLVKCAEKEKTFCVNGGECFMVKDLSNPSRYLCKCPNEFTGDRCQNYVMASGGGSGGGSGGGSNSQMAQVGDGDNSPLMNNFRQYLPSLPQSVECRPFVFSAGKPYEFSIDCDKINLFRGVFAFLLYVATFMYVFSTFANILRNKES
With B1 as the molecule, how does the “higher affinity for the 2/3-heterodimer versus the 3/3 homodimer” value (ErbB-2/3-Ig) read?
The value was “approximately 100 fold”.

B2: T188: HRG-β1 variant with T188 mutated to alanine (protein, UniProt Q02297 1-640, looked up, variant T188A)
chain: MSERKEGRGKGKGKKKERGSGKKPESAAGSQSPALPPRLKEMKSQESAAGSKLVLRCETSSEYSSLRFKWFKNGNELNRKNKPQNIKIQKKPGKSELRINKASLADSGEYMCKVISKLGNDSASANITIVESNEIITGMPASTEGAYVSSESPIRISVSTEGANTSSSTSTSTTGTSHLVKCAEKEKAFCVNGGECFMVKDLSNPSRYLCKCQPGFTGARCTENVPMKVQNQEKAEELYQKRVLTITGICIALLVVGIMCVVAYCKTKKQRKKLHDRLRQSLRSERNNMMNIANGPHHPNPPPENVQLVNQYVSKNVISSEHIVEREAETSFSTSHYTSTAHHSTTVTQTPSHSWSNGHTESILSESHSVIVMSSVENSRHSSPTGGPRGRLNGTGGPRECNSFLRHARETPDSYRDSPHSERYVSAMTTPARMSPVDFHTPSSPKSPPSEMSPPVSSMTVSMPSMAVSPFMEEERPLLLVTPPRLREKKFDHHPQQFSSFHHNPAHDSNSLPASPLRIVEDEEYETTQEYEPAQEPVKKLANSRRAKRTKPNGHIANRLEVDSNTSSQSSNSESETEDERVGEDTPFLGIQNPLAASLEATPAFRLADSRTNPAGRFSTQEEIQARLSSVIANQDPIAV
Which “effect of substitution with alanine on affinity for the ErbB-3 or ErbB-4 receptors” value [2] does the source give for B2 here?
The value was “two and five”.

B3: R220: HRG-β1 variant with R220 mutated to alanine (protein)
chain: SHLVKCAEKEKTFCVNGGECFMVKDLSNPSRYLCKCPNEFTGDACQNYVMASFYKHLGIEFMEAEELY
modifications: left off: large carriers; small tags and cut ends
notes: HRG-β1 variant with R220 mutated to alanine
Which “Sol EC50, binding to the ErbB-4 receptor” value (ErbB-4-Ig) does the source give for B3 here?
Its value is “no binding”.

And the “Sol EC50, binding to the ErbB-3 receptor” value (ErbB-3-Ig [3])?
Its value is “no binding”.

B4: HRG63: HRG-β1 EGF control variant in which HRG-β1 202-204 of HRG8 are deleted (protein)
chain: SHLVKCAEKEKTFCVNGGECFMVKDPSRYLCKCPNEFTGDRCQNYVMASGGGSGGGSGGGSNSQMAQVGDGDNSPLMNNFRQYLPSLPQSVECRPFVFSAGKPYEFSIDCDKINLFRGVFAFLLYVATFMYVFSTFANILRNKES
Which “Phage ErbB-3 EC50 (wt)/EC50 (mut)” value (ErbB-3-Ig [1]; relative to wild-type HRG-β1 EGF-phage in the same assay run, above 1 = higher affinity, ± SD of 2-4 duplicate runs) does the source give for B4 here?
The value was 1.1 ± 0.8.

Reference: patent US7563583B2, “Heregulin variants” (Genentech, Inc., priority 1997, dated 2009)
